This is an account of results in publication PMC11724288.

The target in assay [1] is TFIIICΔtail complex (S. cerevisiae TFIIIC with τ95 truncated at residue 593) (S. cerevisiae) (UniProt P34111). Nature of the assay: cryo-EM structure; τB–DNA dimer classes of dataset 1 (2 μM TFIIICΔtail with equimolar 85-bp tRNA^His DNA, 200 mM KCl); map with preferred orientation, no model deposited.
Assay [2] shares this target. In words: mass photometry; TFIIICΔtail at 50 and 100 nM, with and without 85- and 120-bp tRNA^His DNA; 20 mM HEPES pH 8, 100 mM KCl, 2 mM MgCl2, 5 mM DTT.

Usually stoichiometry N stands for a count of units in the complex or per binding partner. As to “TFIIICΔtail complex (S. cerevisiae TFIIIC with τ95 truncated at residue 593), P34111 1-1160; P33339 1-1025; P32367 1-593; Q06339 1-672; Q12308 1-588; Q12415 1-435”, the stoichiometry N in assay [1] and in assay [2] was 2 each time.
